From paper PMC8126848 (Proceedings of the National Academy of Sciences of the …, 2021)

Target: soluble ectodomain of ICAM-1 (intercellular adhesion molecule-1), domains D1 to D5 (UniProt P05362 28-480)
Assay: cryo-EM structure

Chain of soluble ectodomain of ICAM-1 (intercellular adhesion molecule-1), domains D1 to D5 (P05362 28-480): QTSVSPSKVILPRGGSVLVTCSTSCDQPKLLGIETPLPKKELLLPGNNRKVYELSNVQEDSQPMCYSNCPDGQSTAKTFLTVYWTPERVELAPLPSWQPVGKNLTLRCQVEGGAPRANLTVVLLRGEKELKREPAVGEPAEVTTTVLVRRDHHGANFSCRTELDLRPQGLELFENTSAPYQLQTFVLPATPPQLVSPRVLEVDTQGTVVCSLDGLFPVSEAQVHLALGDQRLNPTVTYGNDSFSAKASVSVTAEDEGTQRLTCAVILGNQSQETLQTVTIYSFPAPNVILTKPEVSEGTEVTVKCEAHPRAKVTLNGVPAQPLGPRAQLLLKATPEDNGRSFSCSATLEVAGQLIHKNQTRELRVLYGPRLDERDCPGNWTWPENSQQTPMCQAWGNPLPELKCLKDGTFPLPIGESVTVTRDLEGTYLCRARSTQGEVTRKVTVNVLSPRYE

B1: rhinovirus 14 capsid protein VP2 (natural protein, rhinovirus 14 (strain 1059), UniProt P03303 70-331, looked up)
chain: SPNVEACGYSDRVQQITLGNSTITTQEAANAVVCYAEWPEYLPDVDASDVNKTSKPDTSVCRFYTLDSKTWTTGSKGWCWKLPDALKDMGVFGQNMFFHSLGRSGYTVHVQCNATKFHSGCLLVVVIPEHQLASHEGGNVSVKYTFTHPGERGIDLSSANEVGGPVKDVIYNMNGTLLGNLLIFPHQFINLRTNNTATIVIPYINSVPIDSMTRHNNVSLMVIPIAPLTVPTGATPSLPITVTIAPMCTEFSGIRSKSIVPQ
B1: binds.
